# Assay results from patent US20230220399.
# Where two headings read alike, the source gives them in different places.
# Tests used:
# Details in all cases: ELISA, SB18, 37 C
# [1] = tested on: KRAS G12D G12D, P01116-2
# [2] = biological target: human serum albumin (HSA) (Homo sapiens) (UniProt P02768)
# [3] = biological target: CD3 delta/epsilon heterodimer (UniProt P04234+P07766)
# [4] = biological target: 4-1BB (TNFRSF9) (Homo sapiens) (UniProt Q07011)
# [5] = biological target: PD-L1 (B7-H1) (Homo sapiens) (UniProt Q9NZQ7)
# [6] = Nap-dU at n (6) positions [4,8,14,21,22,23,25]
# [7] = Nap-dU at n (6) positions [3,5-6,8,13-14,19,21,24]
# [8] = Nap-dU at n (6) positions [Nap-dU at 5,6,7,8,11,17,18,19,22]
# [9] = Nap-dU at n (6) positions [5,10,11,12,18,20,22,24,32]
# [10] = Nap-dU at n (6) positions [5,11,13,19,21,23,28]
# [11] = Nap-dU at n (6) positions [1,6,7,8,14,16,18,20]
# [12] = Nap-dU at n (6) positions [2,4,10,12,14,19,27,29,33,34,35,36,43,45]
# [13] = Nap-dU at n (6) positions [Nap-dU at 21,28,30,33,36,37,40,49]
# [14] = Nap-dU at n (6) positions [18,20,22,32,33,34,35,36,44,45,47,53,57 (Nap-dU)]
# [15] = Nap-dU at n (6) positions [5,10,11,12,18,20,22,24]
# [16] = Nap-dU at n (6) positions [6,8,15,20,21,22,28,30,32,34,42]
# [17] = Nap-dU at n (6) positions [18,20,26,27,29,31,35,36,42,45,53,54,55,56]
# [18] = Nap-dU at n (6) positions [5,11,13,19,21,23,28,36,38]
# [19] = Nap-dU at n (6) positions [5,11,13,19,21,23,28,36,38,42-44]
# [20] = Nap-dU at n (6) positions [Nap-dU at 4,17,24,26,29,32,33,36,45]
# [21] = Nap-dU at n (6) positions [1,3,10,15,16,17,23,25,27,29,37]
# [22] = Nap-dU at n (6) positions [Nap-dU at 1,6,7,8,9,12,18,19,20,23]
# [23] = Nap-dU at n (6) positions [1,7,9,15,17,19,24,32,34,38,39,40,41,48,50]
# [24] = Nap-dU at n (6) positions [8,10-11,13,18-19,24,26,29]
# [25] = Nap-dU at n (6) positions [Nap-dU at 1,6,7,8,9,12,18,19,20,23,32]
# Sequence of CD3 delta/epsilon heterodimer (P04234 22-105, stated change not applied, chain 1 of 2): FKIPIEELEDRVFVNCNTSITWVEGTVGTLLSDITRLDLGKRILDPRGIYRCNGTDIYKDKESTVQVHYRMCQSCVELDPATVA
# Sequence of CD3 delta/epsilon heterodimer (P07766 23-126, stated change not applied, chain 2 of 2): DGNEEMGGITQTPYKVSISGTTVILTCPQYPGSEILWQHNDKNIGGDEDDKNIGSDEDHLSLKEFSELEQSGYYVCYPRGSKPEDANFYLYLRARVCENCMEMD
# Sequence of 4-1BB (TNFRSF9) (Homo sapiens) (Q07011 24-186): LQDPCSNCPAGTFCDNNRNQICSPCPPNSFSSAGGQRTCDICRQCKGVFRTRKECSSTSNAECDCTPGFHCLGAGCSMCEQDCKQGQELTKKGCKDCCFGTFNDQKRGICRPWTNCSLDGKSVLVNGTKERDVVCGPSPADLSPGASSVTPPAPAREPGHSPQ
# Sequence of PD-L1 (B7-H1) (Homo sapiens) (Q9NZQ7 19-238): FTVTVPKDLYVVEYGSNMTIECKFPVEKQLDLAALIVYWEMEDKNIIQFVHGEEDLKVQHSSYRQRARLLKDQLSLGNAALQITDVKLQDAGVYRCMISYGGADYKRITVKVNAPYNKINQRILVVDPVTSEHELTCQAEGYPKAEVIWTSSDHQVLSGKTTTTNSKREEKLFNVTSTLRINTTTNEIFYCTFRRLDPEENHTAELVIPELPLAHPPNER
sequence,measurement,setting,value
GCATAAGTCCGGATGGCAGCTTTATGCCGACC [AD007],Kd,[1]; [6],152 nM
same,Kd,[2]; [6],536 nM
CCTCTTCTGAAGTTAACATGTGCTCCGAGA [AD013],Kd,[1]; [7],3.99 nM
same,Kd,[2]; [7],47 nM
GCCCTTTTAATCCGACTTTAAT [AA007],Kd,[3]; [8],15.1 nM
same,Kd,[2]; [8],2.03 nM
AACCTCGCCTTTACAACTATATCTGACGAACTAACA [AB004],Kd,[4]; [9],0.05 nM
same,Kd,[2]; [9],102 nM
CAGGTCGAGCTGTACGCGTGTGTGACCTGAAGAC [AD043],Kd,[1]; [10],263 nM
same,Kd,[2]; [10],4.18 nM
TCGCCTTTACAACTATATCTGACGA [AB007],Kd,[4]; [11],0.49 nM
same,Kd,[2]; [11],186 nM
TCGCCTTTACAACTATATCTGACGAAC [AB006],Kd,[4]; [11],0.44 nM
same,Kd,[2]; [11],278 nM
CTGTACGCGTGTGTGACCTGAAGACGTATAACTTTTACAGAATCTACA [AD052],Kd,[1]; [12],4.93 nM
same,Kd,[2]; [12],3.06 nM
GTCTGCCTGACAACAACGAGTGCGAACTGTACTACTTGATAGAGACCCTC [AP024],Kd,[5]; [13],33.3 nM
same,Kd,[2]; [13],22.3 nM
GAGTGACCGTCTGCCTGTGTCTGAGGGACCCTTTTTAAGGGCATTATCAGCATGCCTCACACAGCCACACCACCAGCC [AD002],Kd,[1]; [14],0.55 nM
same,Kd,[2]; [14],1.3 nM
AACCTCGCCTTTACAACTATATCTGACGAAC [AB005],Kd,[4]; [15],0.12 nM
same,Kd,[2]; [15],53.5 nM
GCCTGTCTCCAACCTCGCCTTTACAACTATATCTGACGAACTAACACAGCC [AB002],Kd,[4]; [16],0.48 nM
same,Kd,[2]; [16],2.92 nM
GAGTGACCGTCTGCCTGTGTGAGAATTATGTACCTTAACGATCATCCGAAGGTTTTGACCACAGCCACACCACCAGCC [AD001],Kd,[1]; [17],8.12 nM
same,Kd,[2]; [17],8.4 nM
GTCTGCCTGACAACAACGAGTGCGAACTGTACTACTTGATAGAGACCCTCAGCCACACCACCAGCC [AP022],Kd,[5]; [13],66.6 nM
same,Kd,[2]; [13],16.6 nM
CAGGTCGAGCTGTACGCGTGTGTGACCTGAAGACGTATA [AD044],Kd,[1]; [18],1580 nM
same,Kd,[2]; [18],2.93 nM
CAGGTCGAGCTGTACGCGTGTGTGACCTGAAGACGTATAACTTT [AD045],Kd,[1]; [19],20 nM
same,Kd,[2]; [19],0.73 nM
GCCTGACAACAACGAGTGCGAACTGTACTACTTGATAGAGACCCTCAGCC [AP001],Kd,[5]; [20],42.7 nM
same,Kd,[2]; [20],20.9 nM
TCTCCAACCTCGCCTTTACAACTATATCTGACGAACTAACA [AB003],Kd,[4]; [21],0.87 nM
same,Kd,[2]; [21],19.8 nM
TGCCCTTTTAATCCGACTTTAATGGCCACG [AA005],Kd,[3]; [22],39.4 nM
same,Kd,[2]; [22],8.27 nM
TCGAGCTGTACGCGTGTGTGACCTGAAGACGTATAACTTTTACAGAATCTACA [AD053],Kd,[1]; [23],1.03 nM
same,Kd,[2]; [23],1.37 nM
CCCCGCCTCTTCTGAAGTTAACATGTGCTCC [AD014],Kd,[1]; [24],1.95 nM
same,Kd,[2]; [24],28.8 nM
TGCCCTTTTAATCCGACTTTAATGGCCACGCTCAC [AA004],Kd,[3]; [25],10.2 nM
same,Kd,[2]; [25],9.54 nM
